# Laboratory results as given in patent US7094548B2, “Purification of recombinant proteins fused to multiple epitopes” (Sigma-Aldrich Co., priority 1999, dated 2006).
# B1: 3XBAP: triple FLAG version of bacterial alkaline phosphatase expressed in E. coli from p3XFLAG-ATS-BAP and purified on M2 affinity gel (protein)
# chain: MDYKDHDGDYKDHDIDYKDDDDKMPVLENRAAQGDITAPGGARRLTGDQTAALRDSLSDKPAKNIILLIGDGMGDSEITAARNYAEGAGGFFKGIDALPLTGQYTHYALNKKTGKPDYVTDSAASATAWSTGVKTYNGALGVDIHEKDHPTILEMAKAAGLATGNVSTAELQDATPAALVAHVTSRKCYGPSATSEKCPGNALEKGGKGSITEQLLNARADVTLGGGAKTFAETATAGEWQGKTLREQAQARGYQLVSDAASLNSVTEANQQKPLLGLFADGNMPVRWLGPKATYHGNIDKPAVTCTPNPQRNDSVPTLAQMTDKAIELLSKNEKGFFLQVEGASIDKQDHAANPCGQIGETVDLDEAVQRALEFAKKEGNTLVIVTADHAHASQIVAPDTKAPGLTQALNTKDGAVMVMSYGNSEEDSQEHTGSQLRIAAYGPHAANVVGLTDQTDLFYTMKAALGLK
# B2: 1XBAP: bacterial alkaline phosphatase fusion protein containing the traditional FLAG epitope (DYKDDDDK), expressed in E. coli and purified (protein)
# chain: DYKDDDDKMPVLENRAAQGDITAPGGARRLTGDQTAALRDSLSDKPAKNIILLIGDGMGDSEITAARNYAEGAGGFFKGIDALPLTGQYTHYALNKKTGKPDYVTDSAASATAWSTGVKTYNGALGVDIHEKDHPTILEMAKAAGLATGNVSTAELQDATPAALVAHVTSRKCYGPSATSEKCPGNALEKGGKGSITEQLLNARADVTLGGGAKTFAETATAGEWQGKTLREQAQARGYQLVSDAASLNSVTEANQQKPLLGLFADGNMPVRWLGPKATYHGNIDKPAVTCTPNPQRNDSVPTLAQMTDKAIELLSKNEKGFFLQVEGASIDKQDHAANPCGQIGETVDLDEAVQRALEFAKKEGNTLVIVTADHAHASQIVAPDTKAPGLTQALNTKDGAVMVMSYGNSEEDSQEHTGSQLRIAAYGPHAANVVGLTDQTDLFYTMKAALGLK
# Legend:
# [1] = molecular target: 3XFLAG-BAP (bacterial alkaline phosphatase with the triple FLAG sequence at the N-terminus) (E. coli) [phosphatase: P00634]; experiment: western blot, M2 at 10 ug/ml, chemiluminescence
# [2] = molecular target: 3XFLAG-BAP (bacterial alkaline phosphatase with the triple FLAG sequence at the N-terminus) (E. coli) [phosphatase: P00634]; experiment: western blot, M2 at 10 ug/ml, chemiluminescence, longer exposure
# [3] = molecular target: 3XFLAG-BAP (bacterial alkaline phosphatase with the triple FLAG sequence at the N-terminus) (E. coli) [phosphatase: P00634]; experiment: dot blot
# [4] = molecular target: 3XFLAG-BAP (bacterial alkaline phosphatase with the triple FLAG sequence at the N-terminus) (E. coli) [phosphatase: P00634]; experiment: ELISA
# [5] = tested on: anti-FLAG M2 affinity gel; experiment: Competitive elution from anti-FLAG M2 affinity gel; format: binding; details: for competitive elution from anti-FLAG M2 affinity gel using 3XFLAG peptide: competitor: 3XFLAG peptide
# FLAG M2 antibody = experiment: Isothermal titration calorimetry of M2 antibody binding to FLAG epitopes; details: 25° C., PBS containing 0.05% sodium azide, for 3XFLAG system r>1000, accurate Ka can not be determined, in M-1 (unit assumed)
# Procedure: Thermodynamic analysis of the M2 antibody binding to the FLAG epitopes was measured by isothermal titration calorimetry using an OMEGA calorimeter (Microcal). All samples were dialyzed against PBS containing 0.05% sodium azide and degassed prior to the measurements. All measurements were made at 25° C. The concentration of M2 antibody was between 15 and 50 uM depending upon which samples were used. The concentration of the titrants were 605 uM for the 1X BAP, 1110 uM for the 1X FLAG peptide, 400 uM for the 3X BAP, and 580 uM for the 3XFLAG peptide. Injections were carried out every 2.5 to 3.0 minutes which was sufficient for baseline to be achieved with injection volumes ranging from 4 to 11 uL. Injections were carried out over a 4 to 10 second period while stirring at 400 rpm. Data analysis and fitting were performed using the Origin software supplied by MicroCal. The enthalpies were obtained by numerical integration of the data and subtraction of the heats of dilution. Values of Ka, n the number of binding sites were determined by fitting the data to a theoretical curve with only the enthalpy was held constant during the fitting process.
# M2 antiFLAG antibody = experiment: Western blot of purified FLAG-BAP probed with M2 anti-FLAG antibody, chemiluminescent detection; format: binding
# Procedure: E. coli BL21 (DE3) were transformed with the expression plasmid containing the triple FLAG BAP construct made according to the methods of Example 1. Cells were grown in terrific broth containing 100 μg/ml ampicillin at 37° C. with agitation. The culture was grown to an OD600=4.0 and then induced with IPTG at a final concentration of 1 mM. The cell culture was grown for an additional 3 hours at 37° C. and then harvested by centrifugation. The cell pellet was resuspended in 50 mM Tris-HCl. pH 8.0 and the cells disrupted by sonication and cellular debris removed by centrifugation. The supernatant was applied to M2 affinity gel was equilibrated with 50 mM Tris-HCI pH 8.0, 150 mM NaCl (TBS). The resin was washed with 20 bed volumes of TBS and then the triple FLAG BAP was eluted with five column volumes of 0.1 M Glycine pH 3.5.
# The eluted protein was pooled and adjusted to pH 7.5 with 1.0 M Tris-HCl pH 8.0. Protein content was determined by both Bradford and by absorbance using ε280=0.7ml/mg.
# Purified 3XFLAG-BAP and N-BAP were diluted with to 2X Laemlli buffer, boiled for five minutes and then placed on ice. Samples were resolved on a 15% SDS-PAGE using the method of Laemlli (Laemli, V., Nature, 227:680–685 (1970)) and then transferred to nitrocellulose membranes. The membrane was blocked with phosphate buffered saline containing 3% non-fat dry milk for 1 hour and then rinsed three times in TBS, 0.05% Tween 20 (TBS-T). The membrane was incubated with M2 antibody at a final concentration of 10 μg/ml for 30 minutes in TBS-T and then rinsed three times in TBS-T. The membrane was then incubated for 30 minutes with a goat […] IgG (whole molecule) Horseradish peroxidase(HRP) conjugate diluted 1:10,000 in TBS-T then rinsed three times in TBS-T. The FLAG tagged protein were detected with the HRP conjugates and visualized by chemilumenescent detection using ECL (Amersham) and Kodak X-Omat MR film according to manufacturer's directions with exposures from 1 to 30 minutes.
Molecule,amount detected [1],fold increase in detection limit against single FLAG-BAP [1],amount detected [2],fold increase in detection against single FLAG [3],fold increase in detection against single FLAG [4],competitive elution from anti-FLAG M2 affinity gel using 3XFLAG peptide [5],elution from anti-FLAG M2 affinity gel by competition with the original FLAG peptide ([5]; competitor: original FLAG peptide),Ka (association constant) (FLAG M2 antibody),amount of purified protein detected (M2 antiFLAG antibody; exposures as short as 1 minute),"amount of purified protein detected (M2 antiFLAG antibody; increased exposure time, with increased background)","increase in detection limit compared to the single FLAG-BAP fusion protein (M2 antiFLAG antibody; western blot, M2 antibody, chemiluminescence)"
anti-FLAG M2 monoclonal antibody,500 picograms,10 fold,100 picograms,> 10 fold,> 10 fold,,,,,,
B1,,,,,,can be competitively eluted,cannot be eluted,2.09E+08,500 picograms,100 picograms,10 fold
B2,,,,,,can be competitively eluted,,1.69E+07,,,
